Data: patent US20060204496A1 (published 2006)

T1: AR1FLAG (solubilized receptor: extracellular domain of human AR1 with FLAG tag at the C terminus), … (human, UniProt P17181 28-436, biotin-labeled (NHS-PEO4-Biotin))
T1 construct: extracellular domain; captured on streptavidin plates for the phage ELISA; also called biotin-labeled AR1FLAG; AR1 chain of type-I interferon receptor; not shown: FLAG tag at the C terminus
T1 sequence (looked up): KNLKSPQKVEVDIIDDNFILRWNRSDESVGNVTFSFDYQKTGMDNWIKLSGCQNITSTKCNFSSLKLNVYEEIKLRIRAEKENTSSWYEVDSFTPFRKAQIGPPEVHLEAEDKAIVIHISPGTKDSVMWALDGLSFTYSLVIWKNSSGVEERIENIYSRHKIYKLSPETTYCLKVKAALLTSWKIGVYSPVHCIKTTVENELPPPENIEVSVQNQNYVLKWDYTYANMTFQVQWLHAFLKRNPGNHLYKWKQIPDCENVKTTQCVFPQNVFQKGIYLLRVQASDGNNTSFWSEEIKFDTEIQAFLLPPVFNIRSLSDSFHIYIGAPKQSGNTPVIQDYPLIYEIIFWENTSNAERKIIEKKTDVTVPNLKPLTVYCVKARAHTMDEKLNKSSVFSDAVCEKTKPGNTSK

T2: AR2FLAG (solubilized receptor: extracellular domain of human AR2 with FLAG tag at the C terminus), … (human, UniProt P48551 27-243, biotin-labeled (NHS-PEO4-Biotin))
T2 construct: extracellular domain; captured on streptavidin plates for the phage ELISA; also called biotin-labeled AR2FLAG; AR2 chain of type-I interferon receptor; not shown: FLAG tag at the C terminus
T2 sequence (looked up): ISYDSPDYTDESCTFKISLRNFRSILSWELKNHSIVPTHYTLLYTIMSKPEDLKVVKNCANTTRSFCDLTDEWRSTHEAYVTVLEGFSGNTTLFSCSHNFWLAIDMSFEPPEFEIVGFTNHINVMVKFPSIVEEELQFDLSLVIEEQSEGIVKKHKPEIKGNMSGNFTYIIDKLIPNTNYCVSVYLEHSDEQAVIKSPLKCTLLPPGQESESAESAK


These binders were tested against T1, AR1FLAG (solubilized receptor: …) (assay: phage ELISA, biotin-labeled AR1FLAG on streptavidin plates, anti-M13-HRP detection).
Experimental: (§1) The single colonies described above were inoculated to 150 μl of 2×YTAG and cultured at 30° C. overnight. 51 μl of the cultures was inoculated to 500 μl of 2×YTAG, and incubated at 37° C. for two hours. Then 100 μl of 2×YTAG containing 2.5×10⁹ pfu of helper phage and 0.3 μl of 1 mol/l IPTG was added to the cultures, and allowed to stand at 37° C. for 30 minutes. The cultures were then incubated at 30° C. overnight, and their culture supernatant was subjected to ELISA. StreptaWell 96-well microtiter plates (Roche) were coated overnight with 100 μl of PBS containing 1.0 μg/ml biotin-labeled AR1FLAG or AR2FLAG The plates were washed with PBST to remove free antigens, and then blocked overnight with 200 μl of 2% M-PBS. 2% M-PBS was removed and the culture supernatant was added to the plates. The plates were allowed to stand for 40 minutes to bind with the antibodies. After the plates were washed, bound phages were detected using HRP-conjugated anti-M13 antibody (Amersham Pharmacia Biotech) diluted with 2% M-PBS and BM blue POD substrate (Roche). The reaction was stopped by adding sulfuric acid, and absorbance was determined at 450 nm.

| Binder | binding result |
| --- | --- |
| AR1-41 (anti-AR1 chain scFv clone) (scFv, V domains shown, In the phage ELISA it stood as a mouse scFv fused to the f1 phage gene 3 product on phage) VH: QVQLKQSGAELVRPGASVRLSCKASGYTFTFYWINWIKQRPEQGLEWIGRIDPYDSETRYNQKFKDKAILTVDKYSSTAYMQLSSLTSEDSAVYYCAKGVYDGHWFFDVWGAGTSVTVSS VL: DIVMTQSHKFMSTSVGDRVSITCKASQDVSTAVAWYQQKPGQSPKLLIYSASYRYTGVPARFSGSGSGTDFTFTISSVQTEDLAVYYCQQHYRTPPTFGGGTKLELKR | binds |
| AR1-24 (anti-AR1 chain scFv clone) (scFv, V domains shown, scFv fused to f1 phage gene 3 product on phage in the ELISA) VH: QVQLQQSGPELEKPGASVKISCKASGYSFSDYNMNWVKQSNGKSLEWIGNIDPYNGDTNYNQKFKGKATLTLDKSSSTAYMQLKSLTSEDSAVYFCARSRGWLLPFAYWGQGTLVTVSA VL: DILMTQSQKFMSTSVGDRVSVTCKASQNVGINVAWYQQKPGQSPKALIYSASYRYSGVPDRFTGSGSGTDFTLTISNVQSEDLAEYFCQQYNSYPLTFGGGTKLEIKR | binds |

The binders below were run against T2, AR2FLAG (solubilized receptor: …) (assay: phage ELISA, biotin-labeled AR2FLAG on streptavidin plates, anti-M13-HRP detection).
Experimental: as §1

| Binder | binding result |
| --- | --- |
| AR2-14 (anti-AR2 chain scFv clone) (scFv, V domains shown, scFv fused to f1 phage gene 3 product on phage in the ELISA) VH: QVQLQQSGAELVRPGTSVKVSCKASGYAFTNYLIEWVKQRPGQGPEWIGVINPGSGNIRYNGKFKGKATLTADKSSSTAYMQLSSLTSDDSAVYFCARDAYYVGAMDYWGQGTSVTVSS VL: not shown | binds |
| AR2-13 (anti-AR2 chain scFv clone) (scFv, V domains shown, scFv fused to f1 phage gene 3 product on phage in the ELISA) VH: QVQLQQSGGELVRPGTSVKVSCKASGYAFTNYLIEWVKQRPGQGLDWIGMINPGSGGTKCNKKFKGKVTLTADKSSSTAYMHLSSLTSDDSAVYFCARSGWVSAMDYWGQGTSVTVSS VL: not shown | binds |
| AR2-45 (anti-AR2 chain scFv clone) (scFv, V domains shown, scFv fused to f1 phage gene 3 product on phage in the ELISA) VH: QVQLQQSGVELVRPGTSVKVSCKASGYAFTNYLIEWVKQRPGQGLDWIGMINPGSGGTKCNKKFKGKVTLTADKSSSTAYMHLSSLTSDDSAVYFCARSGWVYAMDYWGQGTSVTVSS VL: not shown | binds |
| AR2-31 (anti-AR2 chain scFv clone) (scFv, V domains shown, scFv fused to f1 phage gene 3 product on phage in the ELISA) VH: EVQLQQSGPELVRPGVSVKISCKGSSYKFTDYAMHWVKQSHAKSLEWIGVISTYYGNVKYNQKFKGKATMTVDKSSSTAYMELARLTSEDSAVYYCARSYGSYLDYWGQGTSVTVSS VL: not shown | binds |
| AR2-44 (anti-AR2 chain scFv clone) (scFv, V domains shown, scFv fused to f1 phage gene 3 product on phage in the ELISA) VH: QVQLQQSEAELVRPETSVKVSCKASGYSFRNYLIEWVKQRPGQGLEWIGVINPGSGNTKYNEKFKGKATLTADKSSSTAYMQLSSLTSDDSAVYFCARDGYYLGTMDYWGQGTSVTVSS VL: not shown | binds |
| AR2-33 (anti-AR2 chain scFv clone) (scFv, V domains shown, scFv fused to f1 phage gene 3 product on phage in the ELISA) VH: QVQLQQSGAELVRPGTSVKVSCKASGYAFINNLIEWVQQRPGQGLEWIGVINPGSGNVKYNEKFKGKATLTADKSSSTAYMQLSSLTSDDSAVYFCARDGYYLGTMDHWGQGTSVTVSS VL: not shown | binds |
| AR2-37 (anti-AR2 chain scFv clone) (scFv, V domains shown, scFv fused to f1 phage gene 3 product on phage in the ELISA) VH: QVQLQQSGPELVRPGVSVKISCKGSGYTFTDYAIHWVRQSHAQSLEWIGVIGTYSGNRNYNQKFKGKATMTVDKSSSTAYMELARLTSEDSAIYYCARSAGYSLDFWGQGTSVTVSS VL: not shown | binds |
| AR2-22 (anti-AR2 chain scFv clone) (scFv, V domains shown, scFv fused to f1 phage gene 3 product on phage in the ELISA) VH: QVQLQQSGPELVRPGVSVKISCKGSGYRFTDYAIHWVKQSHAKSLEWIGVISTYYGNTRYNQKFKGKATMTVDKSSSTAYMELASLTSEDSVIYYCARSGGSLMDYWGQGTSVTVSS VL: not shown | binds |
| AR2-43 (anti-AR2 chain scFv clone) (scFv, V domains shown, scFv fused to f1 phage gene 3 product on phage in the ELISA) VH: QVQLQQSGPELVRPGVSVKISCKGSGYTFTDYAMHWVKQSHAKSLEWIGVISTYYSNTRYNQKFKGKATMTVDKSSSTAYMELARLTSEDSAIYYCVRSGGSNMDYWGQGTSVTVSS VL: not shown | binds |
| AR2-40 (anti-AR2 chain scFv clone) (scFv, V domains shown, scFv fused to f1 phage gene 3 product on phage in the ELISA) VH: QVQLQQSGPELVRPGVSVKISCKGSSYKFTDYAMHWVKQSHAKSLEWIGVISTYYGNVKYNQKFKGKATMTVDKSSSTAYMELARLTSEDSAVYYCARSSGSYLDYWGQGTSVTVSS VL: not shown | binds |
